Patent US10287354 (Novartis, dated 2019)

Key:
[1] = biological target: T1, His-Avidin-FKBP (wild-type FKBP) (biotinylated); test: AlphaLISA direct binding assay: 30 nM FLAG-FRB and 30 nM biotinylated FKBP, everolimus titrated 1:3 from 600 nM (EC50 is of everolimus)
T1 construct: also called biotinylated wild-type FKBP; biotinylated FKBP
Protocol: (§1) FRB mutations were also ranked in an alternative assay format. […] All dilutions were made in 1× AlphaLISA Immunoassay buffer (PerkinElmer). Anti-Flag acceptor beads (PerkinElmer) were added at 10 ug/ml final concentration and incubated for one hour at room temperature. Streptavidin donor beads (PerkinElmer), were then added at a final concentration of 40 ug/ml and the plate was protected from light and incubated for 30 minutes at room temperature. The plate was then read on the PerkinElmer EnVision Multiplate reader equipped with the Alpha Module using excitation of 680 nm and a 570 nm Emission filter.

[2] = biological target: T1, His-Avidin-FKBP (wild-type FKBP); test: AlphaLISA direct binding assay, EC50 relative to wild type FLAG-FRB
Protocol: as §1

T1 sequence (chain, as listed by the source limits assumed): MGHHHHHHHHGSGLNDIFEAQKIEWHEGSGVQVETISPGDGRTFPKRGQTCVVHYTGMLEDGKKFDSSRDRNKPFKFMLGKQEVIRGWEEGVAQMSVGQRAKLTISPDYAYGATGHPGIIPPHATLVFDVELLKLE

B1: His-FLAG-FRB (wild-type FRB) (other)
chain: MGHHHHHHHHGSDYKDDDDKGSASRILWHEMWHEGLEEASRLYFGERNVKGMFEVLEPLHAMMERGPQTLKETSFNQAYGRDLMEAQEWCRKYMKSGNVKDLTQAWDLYYHVFRRISKTS
notes: also called wild type Flag-FRB
EC50 [1]: 3.9 nM

B2: His-FLAG-FRB E2032L (other)
chain: MGHHHHHHHHGSDYKDDDDKGSASRILWHEMWHEGLLEASRLYFGERNVKGMFEVLEPLHAMMERGPQTLKETSFNQAYGRDLMEAQEWCRKYMKSGNVKDLTQAWDLYYHVFRRISKTS
notes: The entry already carries the mutation
EC50 [1]: 2.15 nM | fold improvement over wild type FRB [2]: 1.5 to 2 fold

B3: His-FLAG-FRB E2032I (other)
chain: MGHHHHHHHHGSDYKDDDDKGSASRILWHEMWHEGLIEASRLYFGERNVKGMFEVLEPLHAMMERGPQTLKETSFNQAYGRDLMEAQEWCRKYMKSGNVKDLTQAWDLYYHVFRRISKTS
notes: as for B2
EC50 [1]: 2.46 nM | fold improvement over wild type FRB [2]: 1.5 to 2 fold

B4: His-FLAG-FRB T2098L (other)
chain: MGHHHHHHHHGSDYKDDDDKGSASRILWHEMWHEGLEEASRLYFGERNVKGMFEVLEPLHAMMERGPQTLKETSFNQAYGRDLMEAQEWCRKYMKSGNVKDLLQAWDLYYHVFRRISKTS
notes: as for B2
EC50 [1]: 1.44 nM | fold improvement over wild type FRB [2]: 3 fold
